Assay results taken from publication PMC6848165, “C1R Mutations Trigger Constitutive Complement 1 Activation in Periodontal Ehlers-Danlos Syndrome” (Frontiers in Immunology, 2019).

Biological target: the molecule itself
Experiment: SEC; purified tetramers on Superose 6 Increase 10/300 GL, 50 mM Tris, 150 mM NaCl, pH 7.4, 5 mM EDTA, 0.5 ml/min

Protein	stoichiometry N
C1r p.S654A (enzymatically inactive proenzyme C1r 'WT') (enzyme, human, UniProt P00736 18-705, looked up, also called C1r WT with additional p.S654A mutation; source: 293-F cells co-transfected with C1s, purified as part of the tetramer as described (19)) SIPIPQKLFGEVTSPLFPKPYPNNFETTTVITVPTGYRVKLVFQQFDLEPSEGCFYDYVKISADKKSLGRFCGQLGSPLGNPPGKKEFMSQGNKMLLTFHTDFSNEENGTIMFYKGFLAYYQAVDLDECASRSKSGEEDPQPQCQHLCHNYVGGYFCSCRPGYELQEDTHSCQAECSSELYTEASGYISSLEYPRSYPPDLRCNYSIRVERGLTLHLKFLEPFDIDDHQQVHCPYDQLQIYANGKNIGEFCGKQRPPDLDTSSNAVDLLFFTDESGDSRGWKLRYTTEIIKCPQPKTLDEFTIIQNLQPQYQFRDYFIATCKQGYQLIEGNQVLHSFTAVCQDDGTWHRAMPRCKIKDCGQPRNLPNGDFRYTTTMGVNTYKARIQYYCHEPYYKMQTRAGSRESEQGVYTCTAQGIWKNEQKGEKIPRCLPVCGKPVNPVEQRQRIIGGQKAKMGNFPWQVFTNIHGRGGGALLGDRWILTAAHTLYPKEHEAQSNASLDVFLGHTNVEELMKLGNHPIRRVSVHPDYRQDESYNFEGDIALLELENSVTLGPNLLPICLPDNDTFYDLGLMGYVSGFGVMEEKIAHDLRFVRLPVANPQACENWLRGKNRMDVFSQNMFCAGHPSLKQDACQGDAGGVFAVRDPNTDRWVATGIVSWGIGCSRGYGFYTKVLNYVDWIKKEMEEED	2
C1r p.(D290G) with additional p.S654A mutation (enzyme, human, UniProt P00736 18-705, looked up, also called c.869A>G; source: 293-F cells co-transfected with C1s, purified as part of the tetramer as described (19)) SIPIPQKLFGEVTSPLFPKPYPNNFETTTVITVPTGYRVKLVFQQFDLEPSEGCFYDYVKISADKKSLGRFCGQLGSPLGNPPGKKEFMSQGNKMLLTFHTDFSNEENGTIMFYKGFLAYYQAVDLDECASRSKSGEEDPQPQCQHLCHNYVGGYFCSCRPGYELQEDTHSCQAECSSELYTEASGYISSLEYPRSYPPDLRCNYSIRVERGLTLHLKFLEPFDIDDHQQVHCPYDQLQIYANGKNIGEFCGKQRPPDLDTSSNAVDLLFFTGESGDSRGWKLRYTTEIIKCPQPKTLDEFTIIQNLQPQYQFRDYFIATCKQGYQLIEGNQVLHSFTAVCQDDGTWHRAMPRCKIKDCGQPRNLPNGDFRYTTTMGVNTYKARIQYYCHEPYYKMQTRAGSRESEQGVYTCTAQGIWKNEQKGEKIPRCLPVCGKPVNPVEQRQRIIGGQKAKMGNFPWQVFTNIHGRGGGALLGDRWILTAAHTLYPKEHEAQSNASLDVFLGHTNVEELMKLGNHPIRRVSVHPDYRQDESYNFEGDIALLELENSVTLGPNLLPICLPDNDTFYDLGLMGYVSGFGVMEEKIAHDLRFVRLPVANPQACENWLRGKNRMDVFSQNMFCAGHPSLKQDACQGDAGGVFAVRDPNTDRWVATGIVSWGIGCSRGYGFYTKVLNYVDWIKKEMEEED	2
